We go through one molecule from US20030087394, “Insulin related transcription factor and uses thereof” (published 2003).

The data set addresses RIPE3b1 47-kDa protein (mMafA), affinity purified and SDS-PAGE eluted (UniProt A0A1U7RCQ9 A0A1U7RCQ9:1-361). In words: pulldown; streptavidin agarose affinity purification. As to conditions: tags: from HIT T-15 nuclear extract; label: 5' biotin top strand. The procedure: This HP fraction contained about 85% of the recovered RIPE3b 1 factor with a 2.5-fold purification. The RIPE3b binding factor was then affinity purified from the HP fraction using a 5′ biotinylated RIPE3b oligonucleotide and streptavidin agarose. The purified fractions were analyzed for binding to a rat insulin II-139 to -101 bp probe by EMSA [FIG. 3, (24)]. The −139 to −101 bp probe contains the RIPE3b and overlapping A2 elements. Five distinct factors (RIPE3b1, RIPE3b2 and three A2 specific complexes) can bind the −139 to −101 bp probe. Thus the −139 to −101 bp probe serves as a good indicator of the purification process. The RIPE3b1 binding activity was eluted in two fractions and was the predominant DNA binding activity in these fractions. RIPE3b1 binding activity was purified 95-fold as compared to the HP fraction […]. The purified fraction was next analyzed on a 10% SDS-PAGE gel along with the starting HIT T-15 nuclear extract and HP fraction. […] The regions corresponding to the individual protein bands were cut; the proteins were then eluted and analyzed for the RIPE3b1 binding activity. […]

Sequence of RIPE3b1 47-kDa protein (mMafA), affinity purified and SDS-PAGE eluted (A0A1U7RCQ9 entry or part of it): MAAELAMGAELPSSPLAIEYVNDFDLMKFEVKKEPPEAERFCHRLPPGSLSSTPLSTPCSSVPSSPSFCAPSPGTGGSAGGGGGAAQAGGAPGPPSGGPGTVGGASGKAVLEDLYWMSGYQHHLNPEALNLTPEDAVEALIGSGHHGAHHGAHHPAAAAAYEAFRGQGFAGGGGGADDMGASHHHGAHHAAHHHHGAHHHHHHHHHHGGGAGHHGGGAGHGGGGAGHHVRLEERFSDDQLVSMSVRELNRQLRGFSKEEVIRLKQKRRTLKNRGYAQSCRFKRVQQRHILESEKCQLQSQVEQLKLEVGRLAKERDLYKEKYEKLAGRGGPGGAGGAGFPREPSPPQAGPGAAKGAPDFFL

B1: biotinylated RIPE3b (-126 to -101) dimer (dsDNA)
DNA 1: TGACTGGAAACTGCAGCTTCAGCCCCTCTGGAAACTGCAGCTTCAGCCCCAC
DNA 2: GTGGGGCTGAAGCTGCAGTTTCCAGAGGGGCTGAAGCTGCAGTTTCCAGTCA
Regarding B1, the binding result is recorded as “binds”.
